Data on one molecule can be found in patent US10215752B2, “Nanotube array for optical detection of protein-protein interactions” (MASSACHUSETTS INSTITUTE OF TECHNOLOGY, priority 2010, dated 2019).

For this assay, the target named is p16 (Homo sapiens, UniProt Q8N726). As to the kind of experiment: Protein-protein interaction on SWNT/CHI array, Förster distance calculation. The settings on record: distance change after analyte protein p16, Förster equation.
p16, sequence (Q8N726 with tags, fused parts or gaps): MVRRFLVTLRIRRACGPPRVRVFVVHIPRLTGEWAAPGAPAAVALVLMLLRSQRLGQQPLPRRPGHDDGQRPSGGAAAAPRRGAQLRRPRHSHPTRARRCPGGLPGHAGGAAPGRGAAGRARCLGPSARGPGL

Procedure: Reaction mixtures for cell-free protein expression were added to each array wells. The fluorescent intensities of each SWNT/CHI well were taken to track the intensity changes. To initiate protein synthesis, 1 μl PCR-amplified DNAs were added to each well a humidified chamber at 37° C. for 2 hours. The arrays were washed three times for 10 min each with PBS buffer (pH 7.4, 100 mM) at RT and then PL spectra were taken. To analyze protein-protein interaction on SWNT/XHI array, anti-Histag antibody or cell-free expressed protein mixtures were added to each well and then PL spectra were taken to compare the intensity change.
Near-infrared photoluminescence spectra were acquired using 785 nm excitation and an Acton SP-150 spectrograph coupled to a Princeton instruments OMA V InGaAs detector or with Kaiser Holospec f/1.8 Imaging Spectrograph (Kaiser Optical).

B1: CDK4: human derived protein (ExPASy P11802), on-chip cell-free expressed with His-tag (protein, UniProt P11802 2-303, looked up)
Cyclin-dependent kinase 4: ATSRYEPVAEIGVGAYGTVYKARDPHSGHFVALKSVRVPNGGGGGGGLPISTVREVALLRRLEAFEHPNVVRLMDVCATSRTDREIKVTLVFEHVDQDLRTYLDKAPPPGLPAETIKDLMRQFLRGLDFLHANCIVHRDLKPENILVTSGGTVKLADFGLARIYSYQMALTPVVVTLWYRAPEVLLQSTYATPVDMWSVGCIFAEMFRRKPLFCGNSEADQLGKIFDLIGLPPEDDWPRDVSLPRGAFPPRGPRPVQSVVPEMEESGAQLLLEMLTFNPHKRISAFRALQHSYLHKDEGNPE
modifications: His-tag
With B1, the Δd2 is reported as 0.06338.
